Test system: Saccharomyces cerevisiae
Experiment: transcriptional activation domain activity (GFP:mCherry ratio, weighted mean of sorted bins, harmonized to initial dataset scale) (arbitrary fluorescence ratio units); higher = stronger transcriptional activation
Details: beta-estradiol 1 µM; induction time 4 h
Method in brief: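 Barcoded tiles were sequenced after cells were sorted into 8 bins by GFP:mCherry ratio. Before sorting, cultures had been diluted 1:5 into SC with 1 uM beta-estradiol and held for 4 hours at 30 °C. The tiles were fused to an estradiol-inducible synthetic transcription factor and integrated at URA3 in yeast diploids carrying a GFP reporter. Activation activity is the read-weighted mean of bin median fluorescence, averaged over barcodes and linearly mapped onto the initial dataset scale, and tiles under 50 reads were left out.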

Row | Sequence | transcriptional activation domain activity
1 | FEAKHADLIGSQKALYFQSTENIKNLLSMFTSYFSPIVDLLGHLHRVLTQVYH | 46600
2 | MAWHFVWQDIPLMGTMHQISYLLNNFIYCFPIAHVHLQVCFFSSLLLIHFYTF | 68200
3 | APVAEPVPVASTSSEVKKDEEEADEDEEDDNVASIEAKIAAARSRLSATHCLF | 10900
4 | PFLPSSLPPFLPSSLPPFLPSSLPPFLPSSLPPSLLFSFLFSFPLPSPPSLPL | 64000
5 | FLNRYLGLLGNIPVILEFFGNFTEHMFVFAFCFWLAFTQLVVIALLIIRTYAL | 65900
6 | FTYMDRLQLIQAPFPWRDRMALTAITEFVATYYQNMHVDITVTMRKLGYLEKL | 60800
7 | MVSFYYICSCAGSCWMLNARLHLWGLIFTVIFGDTVHVICLLFWFYFYRPPPF | 41200
8 | YIKVLVAVLFVLDTLHVYYLSATFWVVCIRGRLDISGLTVLPWQTPASILMTV | 42300
9 | MGLSDWPRVLSWHASISLVYLPFWVVVSLVWRYHIWTLSSVVLIIFIHIIFGL | 31700
10 | IWIIQCCVLPLCLHFGSIFPGLQYTLLAFLPYYCCFSHYFPVLIPVLILICFI | 63700
11 | VSYVSYVLLFIPFFMLRVFYLSIVTFFLCHIWLHRFGFLVWLWILWCTWGWCN | 54800
12 | GDKEKRKTSRRSRSPSRGRHQRRGGGGGEESRPRSESPRRRRRRLDSSARRDD | 44400
13 | MPRHLYLIYILYILMTWGLYLILLQVIFIITMLMIFIYPFSIYLFKFQHIRSL | 49500
14 | PSSTARRKLLLIYIDFKFFLAASWFRLCNLTLIGSVWWPIWGYMCWILSGPLF | 67300
15 | VLRMFFVSQANTFVILSLLGLCLPSRALPAAFGFSPSYAPLLIRLYLAQTLFT | 25800
16 | ERDMELLVGHFDFMAKEAFLADSISLCSTEEELERRLDTPVIQEDSPVMDNNT | 62900
17 | YYCLLWVRVSIKGQKGAVIAPEQIVIGWVDFHALIIVLWSNRISITLCVARVI | 29200
18 | LFLMVAPYPSLLIVLVNHYLRTLDKPIAFVIHFLVIFTLKFLAFISLIVCVAR | 75600
19 | INCQVVYQLQGITGHMALNFASINFAIRTIYIWMHNVYVTSTLSLLILCQWVI | 54700
20 | LQSSLLHPCAFYVRLLISILIEYISLPCLTIDFFFFFIFRVTFPIFFLTFFYL | 61400
21 | EQDSWNAQLDFFNHIFYTQLYPAYDLPKKLQEDTELETEQENQMLNQVGNINY | 109000

Row | Sequence | transcriptional activation domain activity
22 | MTLGLMAFSEYNFADYACLFLFSSFLLFYLIFPIFSFLLLCVYFFFVSFHLYA | 27600
23 | TRPYEMALKFVNVTDTNELLRMRQFACDICDYAPHLLDNDNISLLIVLLILTR | 45000
24 | RMGRWKHGWRKWWWKFYKWCFLWMIEVIRVVKVVGIVIVGCIYLGLRFFIFVE | 57000
25 | FSFGLLFWFLFLFLFLLLFVFLFWSFGFVLLLVLVLFLCSFLLFMFGFWFSSG | 47100
26 | MFLLFSLCVDFKGVLGGWLLFFFLLAFDGFTRLLWGDVICFFFYLLLFATTHV | 57600
27 | PFLLYTSGFLFMGATEEQMNLLTSAGVSHVSYILLLYSISFLLFLFVCMLLHL | 33400
28 | RGGGRADQGRRKSPARARSASASSQSSSRSRSASRDSDQSNRRSKATSPGGRG | 32500
29 | IPSSQSRDIANDYDRGSTDNNLVTTTSTSSIFHDEDLTFFDRIPLNSNNNYYF | 102000
30 | APIILGFSCGVCIHHLLACCIFVMIFIIRIFDPVYIPSMVLLFLCSCLSDRHG | 69700
31 | VSRIRAAVEAQLNHPVNHVLIQHYRSGKDYISEHSDKTIDVVAGSKIVNISIG | 37700
32 | SRLTHVLLCYRQSLLVTVYSHLLLLDQSSQVWWRWMSIFFTLIMWSIELLISS | 57600
33 | SSRRTKKSRRRRRGSSSSSSEAPSRKQRKAAASSSDEEQDRRARRKGKGKGRV | 30800
34 | SRSGGGNGKPAGSGKNGSSQLKEVASRSRRRGDSDDDDRKGGSTRSGGGSRKV | 34000
35 | SKDARETNPEGEEIEKQRRKKRSREEKEDNERSSRKRRSSRSRSPRRQKEKAN | 30900
36 | MSTEVKAAHAGKARQKAWKPKVKTGCVTCRNRRVKCDEAKPDCRRCVAAGRKC | 10800
37 | MIIIDIFLSIYMILSYLYLHLFIFHVHMNPSYFIYFLAFSVKEIFIVSWFFFI | 57300
38 | KMSTNANNYTGAGNLHAAKPATSPTNVGTLHENLSSSHFMIPDVDQFNSFEDF | 30300
39 | CDEHINMKEKEPEKDETPAADGAAKEEEKKPETKPDDTFQAFVVIAVALISMG | 27600
40 | IIFCLGRYGLICSLMYTNTVLIFLPPSRMSAQASLTCQTFASILVFCIVLSAI | 73300
41 | DLCFWLLDVCVLFSPGSCRLHQLSDKYFVEQLVLMNVFLIQVLLKFVFPLGRA | 74800
42 | PKPKAKTPSKAKKKAEPIPKAKAAPKPKEKTTPNTPARRGRPRKEKAAAETPM | 37500

Row | Sequence | transcriptional activation domain activity
43 | MVLLLLLDYNVFCHFNFAVHLYLLPFINKFKRIVLGHLIFLWNYLVQVVVVSP | 67600
44 | MEWLLHTVYVVAIKDTRAWGGFSPFQMSMVGYFNLKLIWLKLLIIWRFFRLWA | 76000
45 | LFTFRLLRICGPFVARLPSAERLLGWSTLASILGLWWNPRFAQVFRGFTRHIS | 61800
46 | ILHELTIVVACHRWNHGLFFFFQMMQIPIIMYSDKIPWFRDQHALRNWCFWLA | 58000
47 | HVAMRAAVKANNSVMHRLLRNWGENRRRHFHGLLLVRLFRTTLVFSCADEVAA | 53300
48 | RSPRRQTQSSSTTPPARKTPTQTTKTHRTTSPTTRSSCRRASGRQTAPTHSSC | 43100
49 | MVWGCAFFISSQFLFPWLLWVFPLSLLSLGLSHTLELDSVFSLLLIFFTIPLF | 34500
50 | NIHLVNMAQVVVIFFHRLLYGIIPLFEITTCAFFPVLVSLWHLAYILFYVVMF | 69100
51 | KWIVPTPFASHAFHCLDGYFQSIPYHLYVYLVPMQKWLYISMFLFVNVWTVMI | 48400
52 | DVKKVYFASRFPGNWLRDYSQAMDIAGLSKLSSDTLVLVVAVLGFMTFGFATE | 38900
53 | DPEEVQGGKQRAEGNQGGGGRQGRRGPRGAEGQDHPGVQRPHRRPRRGHQAHL | 33200
54 | MGKRRRLLAKAQPKSGGSTSAKHHPQQGTGKAVAARGQKPQKQQGAPRNGSNG | 21900
55 | RKPETAGEGSGAEGASGGENHRRGSTRGRGRGRGRGGRSSRGGRSRKDGAGAE | 33500
56 | LSKRPGKPPARPSPQAAVQRRSFHATSSALASKDPYKTLGVGKSASASEIKKA | 39500
57 | MKGVCLKVGTTKPKKPNSGERKIARVRLSSGKVITAYIQGEGHNVQQHSVVLV | 51000
58 | LLHLAISQLQAYLDRFRTRLNAVHALHLKRLILFLTALDQFTCARVAGMKVRS | 33700
59 | MFCLRSWLPLLFIPTNAPPIFIFIFFFLNFFLSRPCVYCSFLLLILCLTSCYW | 36600
60 | ITMQQIQRDSDKYLCIQGVFELFRSPLYTVLTLDKSVLGPTVLVRLLTVLAER | 39400
61 | PILLILLLLHVGFFGGYYFVICLGGLFDVCLSQLLVYKWQSFGFYWRIVVFLW | 78100
62 | MYTYTITFLSFISTIPLHSFLLFEQAYEYLCILLSLTVCLQTQLLLNICLLPF | 73000
63 | KKEAAAAKKEPAKRKKTKADEEDKESAEGTESDEESKPKKKKAAPKKKGAATA | 20600

Row | Sequence | transcriptional activation domain activity
64 | RGSVESDLIILAMTCTLDILMHLPRSVFYRRQLDLFLWLLRVIPSVKTTNSLN | 41400
65 | LLYCNQIYLICPYVVNNKVQRQVSPRDMLIVLEAALKITSIYKILTYVYFENI | 58700
66 | HEQKICAKYGSDVIFADNIDGGDSDEDERSTSCTCGKLRAIVARVMVAIGGDL | 48400
67 | MELLSLLFFLFFFFFLYSLFGYASTLSFLPHHLFSFLTIYFISYFCDILFFEF | 44900
68 | HAEPGTGWACVKHTSDCTAVKKASGIPGRNFHRRPKYSVVVSAGERTWKAKQC | 52400
69 | ARAEELGARVSTGRRVVDVRCSSRGEEGSAAVAVCADGSRYAADLVVGADGVH | 51600
70 | SFLNDAMSEIHTFGDFNGELDSTFLEFSGTEIKEPNNFITENTNAIETAAASM | 113000
71 | GKRRFLNGFLSCLLPTCGISDPLLRYAACFTVIRCCFRSNVLVPAMMRALLET | 45100
72 | EEKAPFDIPLDEFFTELEKHSNVSQFNTLDVSEGNQVINESASTNTSSALNCQ | 103000
73 | AAGASTTAQVSKKRQVLLRVNNRTYTRIDCIGRGGSGKVYRVSAESGKMLALK | 62100
74 | NIFMLVFWSLALIYWSMFVIIPSIFNYFSPYHYSRWKVVLVNVGTFVWNLATC | 61300
75 | EVVLLPDLCGFCCFSMRFVVLLDLIGTLTLPVTACYLVYLIYVIASGNGPFPL | 46800
76 | MYLPKPGWLHVAGWLFILSLYLSIYIISYLISSYICNLCSFFCYLLLACILSF | 49600
77 | MMNKTPGFLSLIPPFVIDLILLRCCLDPNISLNVTYRTLYFLMWFFQSVYLAV | 53200
78 | GKRAREESDEENDEEEEAEGEGAEKEGEEEEEEEEVKKPAAKRARTAKGAAAK | 13500
79 | EAEGEAGAEEPAAEGEAGAEGEAGGEGELEAEPAAEGEGEAEPEAGAETEAAG | 13200
80 | AYWVVLGIWWFIFQQHCPGPPLPMGKNYLTIGWKQIWLAVKQYKHMPYTFIYL | 53300
81 | AAEEKEGYEDEAEEGEDEEEDEEDPEVRRKEELRARMAKMSAGMGGMGGMGMM | 10100
82 | ILLPIFGLANRDKNVELMRWALKQCNRTLRRKRAHIWYFSRWLMRPMLPQQRS | 66600
83 | KFHYRCGVAAKDTTESLRWVVADHYTWFTCTHCAAHKAHWYFDGSLGLVRLWF | 69200

— the supplement of paper PMC12636428
